Measurements: PMC3358304

Assay: immunoblot of total Akt, MCF-7
Settings: glycan lost; control: wild type

| Substance | expression_or_secretion |
| --- | --- |
| Akt (AKT1): T305Y | no change |
| Akt (AKT1): T312Y | no change |
